From paper PMC3936483 come the findings set out here.

Assay [1] addresses CTRP2 (C1q/TNF-related protein 2), C-terminal FLAG- or HA-tagged, full length (mouse) (UniProt Q9D8U4). The assay is described as follows: SEC. On the technique in general: Size exclusion chromatography separates by hydrodynamic size, large species first.
Assay [2] concerns the target serum CTRP2 (mouse (endogenous in C57BL/6 serum)) (UniProt Q9D8U4). The assay is described as follows: SEC.

serum CTRP2, sequence (Q9D8U4 25-294): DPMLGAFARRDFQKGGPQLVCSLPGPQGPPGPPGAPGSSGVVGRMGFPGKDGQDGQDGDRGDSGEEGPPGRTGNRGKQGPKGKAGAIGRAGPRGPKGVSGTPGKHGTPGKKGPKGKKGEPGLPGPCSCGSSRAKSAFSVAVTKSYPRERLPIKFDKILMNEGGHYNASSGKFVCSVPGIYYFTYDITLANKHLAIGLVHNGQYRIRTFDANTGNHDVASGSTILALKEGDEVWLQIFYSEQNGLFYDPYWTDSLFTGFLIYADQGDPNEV
CTRP2 (C1q/TNF-related protein 2), C-terminal FLAG- or HA-tagged, full length, sequence (Q9D8U4 25-294): as above

On to “CTRP2 (C1q/TNF-related protein 2), C-terminal FLAG- or HA-tagged, full length (from UniProt Q9D8U4 25-294) (natural protein)”, for which, in assay [1], the stoichiometry N (in general, the number of molecules, sites or subunits per partner or assembly) was 3.

Regarding “serum CTRP2 (from UniProt Q9D8U4 25-294) (natural protein)”, the stoichiometry N in assay [2] is 3.
